From paper PMC3113324, “AKAP5 and AKAP12 Form Homo-oligomers” (Journal of Molecular Signaling, 2011)

B1: HA-AKAP12 (1-938) (domain or fragment, human, UniProt Q02952 1-938, looked up)
chain: MGAGSSTEQRSPEQPPEGSSTPAEPEPSGGGPSAEAAPDTTADPAIAASDPATKLLQKNGQLSTINGVAEQDELSLQEGDLNGQKGALNGQGALNSQEEEEVIVTEVGQRDSEDVSKRDSDKEMATKSAVVHDITDDGQEETPEIIEQIPSSESNLEELTQPTESQANDIGFKKVFKFVGFKFTVKKDKTEKPDTVQLLTVKKDEGEGAAGAGDHKDPSLGAGEAASKESEPKQSTEKPEETLKREQSHAEISPPAESGQAVEECKEEGEEKQEKEPSKSAESPTSPVTSETGSTFKKFFTQGWAGWRKKTSFRKPKEDEVEASEKKKEQEPEKVDTEEDGKAEVASEKLTASEQAHPQEPAESAHEPRLSAEYEKVELPSEEQVSGSQGPSEEKPAPLATEVFDEKIEVHQEEVVAEVHVSTVEERTEEQKTEVEETAGSVPAEELVEMDAEPQEAEPAKELVKLKETCVSGEDPTQGADLSPDEKVLSKPPEGVVSEVEMLSSQERMKVQGSPLKKLFTSTGLKKLSGKKQKGKRGGGDEESGEHTQVPADSPDSQEEQKGESSASSPEEPEEITCLEKGLAEVQQDGEAEEGATSDGEKKREGVTPWASFKKMVTPKKRVRRPSESDKEDELDKVKSATLSSTESTASEMQEEMKGSVEEPKPEEPKRKVDTSVSWEALICVGSSKKRARRGSSSDEEGGPKAMGGDHQKADEAGKDKETGTDGILAGSQEHDPGQGSSSPEQAGSPTEGEGVSTWESFKRLVTPRKKSKSKLEEKSEDSIAGSGVEHSTPDTEPGKEESWVSIKKFIPGRRKKRPDGKQEQAPVEDAGPTGANEDDSDVPAVVPLSEYDAVEREKMEAQQAQKSAEQPEQKAATEVSKELSESQVHMMAAAVADGTRAATIIEERSPSWISASVTEPLEQVEAEAALLTEEVLE
notes: AKAP12, human, N-terminal fragment, residues 1-938; also called AKAP12 N-terminal (1-938) fragment; source: HEK293, transfected (pcDNA3.1), in whole-cell lysate
B2: HA-tagged full-length AKAP12 (1-1782) (natural protein, human, UniProt Q02952 1-1782, looked up)
chain: MGAGSSTEQRSPEQPPEGSSTPAEPEPSGGGPSAEAAPDTTADPAIAASDPATKLLQKNGQLSTINGVAEQDELSLQEGDLNGQKGALNGQGALNSQEEEEVIVTEVGQRDSEDVSKRDSDKEMATKSAVVHDITDDGQEETPEIIEQIPSSESNLEELTQPTESQANDIGFKKVFKFVGFKFTVKKDKTEKPDTVQLLTVKKDEGEGAAGAGDHKDPSLGAGEAASKESEPKQSTEKPEETLKREQSHAEISPPAESGQAVEECKEEGEEKQEKEPSKSAESPTSPVTSETGSTFKKFFTQGWAGWRKKTSFRKPKEDEVEASEKKKEQEPEKVDTEEDGKAEVASEKLTASEQAHPQEPAESAHEPRLSAEYEKVELPSEEQVSGSQGPSEEKPAPLATEVFDEKIEVHQEEVVAEVHVSTVEERTEEQKTEVEETAGSVPAEELVEMDAEPQEAEPAKELVKLKETCVSGEDPTQGADLSPDEKVLSKPPEGVVSEVEMLSSQERMKVQGSPLKKLFTSTGLKKLSGKKQKGKRGGGDEESGEHTQVPADSPDSQEEQKGESSASSPEEPEEITCLEKGLAEVQQDGEAEEGATSDGEKKREGVTPWASFKKMVTPKKRVRRPSESDKEDELDKVKSATLSSTESTASEMQEEMKGSVEEPKPEEPKRKVDTSVSWEALICVGSSKKRARRGSSSDEEGGPKAMGGDHQKADEAGKDKETGTDGILAGSQEHDPGQGSSSPEQAGSPTEGEGVSTWESFKRLVTPRKKSKSKLEEKSEDSIAGSGVEHSTPDTEPGKEESWVSIKKFIPGRRKKRPDGKQEQAPVEDAGPTGANEDDSDVPAVVPLSEYDAVEREKMEAQQAQKSAEQPEQKAATEVSKELSESQVHMMAAAVADGTRAATIIEERSPSWISASVTEPLEQVEAEAALLTEEVLEREVIAEEEPPTVTEPLPENREARGDTVVSEAELTPEAVTAAETAGPLGAEEGTEASAAEETTEMVSAVSQLTDSPDTTEEATPVQEVEGGVPDIEEQERRTQEVLQAVAEKVKEESQLPGTGGPEDVLQPVQRAEAERPEEQAEASGLKKETDVVLKVDAQEAKTEPFTQGKVVGQTTPESFEKAPQVTESIESSELVTTCQAETLAGVKSQEMVMEQAIPPDSVETPTDSETDGSTPVADFDAPGTTQKDEIVEIHEENEVASGTQSGGTEAEAVPAQKERPPAPSSFVFQEETKEQSKMEDTLEHTDKEVSVETVSILSKTEGTQEADQYADEKTKDVPFFEGLEGSIDTGITVSREKVTEVALKGEGTEEAECKKDDALELQSHAKSPPSPVEREMVVQVEREKTEAEPTHVNEEKLEHETAVTVSEEVSKQLLQTVNVPIIDGAKEVSSLEGSPPPCLGQEEAVCTKIQVQSSEASFTLTAAAEEEKVLGETANILETGETLEPAGAHLVLEEKSSEKNEDFAAHPGEDAVPTGPDCQAKSTPVIVSATTKKGLSSDLEGEKTTSLKWKSDEVDEQVACQEVKVSVAIEDLEPENGILELETKSSKLVQNIIQTAVDQFVRTEETATEMLTSELQTQAHVIKADSQDAGQETEKEGEEPQASAQDETPITSAKEESESTAVGQAHSDISKDMSEASEKTMTVEVEGSTVNDQQLEEVVLPSEEEGGGAGTKSVPEDDGHALLAERIEKSLVEPKEDEKGDDVDDPENQNSALADTDASGGLTKESPDTNGPKQKEKEDAQEVELQEGKVHSESDKAITPQAQEELQKQERESAKSELTES
notes: AKAP12, human, full length (1-1782); also called HA-AKAP12; HA-tagged AKAP12; source: HEK293, transfected (pcDNA3.1), in whole-cell lysate
B3: full-length endogenous AKAP12 (natural protein, human (endogenous in HEK293), UniProt Q02952 1-1782, looked up)
chain: MGAGSSTEQRSPEQPPEGSSTPAEPEPSGGGPSAEAAPDTTADPAIAASDPATKLLQKNGQLSTINGVAEQDELSLQEGDLNGQKGALNGQGALNSQEEEEVIVTEVGQRDSEDVSKRDSDKEMATKSAVVHDITDDGQEETPEIIEQIPSSESNLEELTQPTESQANDIGFKKVFKFVGFKFTVKKDKTEKPDTVQLLTVKKDEGEGAAGAGDHKDPSLGAGEAASKESEPKQSTEKPEETLKREQSHAEISPPAESGQAVEECKEEGEEKQEKEPSKSAESPTSPVTSETGSTFKKFFTQGWAGWRKKTSFRKPKEDEVEASEKKKEQEPEKVDTEEDGKAEVASEKLTASEQAHPQEPAESAHEPRLSAEYEKVELPSEEQVSGSQGPSEEKPAPLATEVFDEKIEVHQEEVVAEVHVSTVEERTEEQKTEVEETAGSVPAEELVEMDAEPQEAEPAKELVKLKETCVSGEDPTQGADLSPDEKVLSKPPEGVVSEVEMLSSQERMKVQGSPLKKLFTSTGLKKLSGKKQKGKRGGGDEESGEHTQVPADSPDSQEEQKGESSASSPEEPEEITCLEKGLAEVQQDGEAEEGATSDGEKKREGVTPWASFKKMVTPKKRVRRPSESDKEDELDKVKSATLSSTESTASEMQEEMKGSVEEPKPEEPKRKVDTSVSWEALICVGSSKKRARRGSSSDEEGGPKAMGGDHQKADEAGKDKETGTDGILAGSQEHDPGQGSSSPEQAGSPTEGEGVSTWESFKRLVTPRKKSKSKLEEKSEDSIAGSGVEHSTPDTEPGKEESWVSIKKFIPGRRKKRPDGKQEQAPVEDAGPTGANEDDSDVPAVVPLSEYDAVEREKMEAQQAQKSAEQPEQKAATEVSKELSESQVHMMAAAVADGTRAATIIEERSPSWISASVTEPLEQVEAEAALLTEEVLEREVIAEEEPPTVTEPLPENREARGDTVVSEAELTPEAVTAAETAGPLGAEEGTEASAAEETTEMVSAVSQLTDSPDTTEEATPVQEVEGGVPDIEEQERRTQEVLQAVAEKVKEESQLPGTGGPEDVLQPVQRAEAERPEEQAEASGLKKETDVVLKVDAQEAKTEPFTQGKVVGQTTPESFEKAPQVTESIESSELVTTCQAETLAGVKSQEMVMEQAIPPDSVETPTDSETDGSTPVADFDAPGTTQKDEIVEIHEENEVASGTQSGGTEAEAVPAQKERPPAPSSFVFQEETKEQSKMEDTLEHTDKEVSVETVSILSKTEGTQEADQYADEKTKDVPFFEGLEGSIDTGITVSREKVTEVALKGEGTEEAECKKDDALELQSHAKSPPSPVEREMVVQVEREKTEAEPTHVNEEKLEHETAVTVSEEVSKQLLQTVNVPIIDGAKEVSSLEGSPPPCLGQEEAVCTKIQVQSSEASFTLTAAAEEEKVLGETANILETGETLEPAGAHLVLEEKSSEKNEDFAAHPGEDAVPTGPDCQAKSTPVIVSATTKKGLSSDLEGEKTTSLKWKSDEVDEQVACQEVKVSVAIEDLEPENGILELETKSSKLVQNIIQTAVDQFVRTEETATEMLTSELQTQAHVIKADSQDAGQETEKEGEEPQASAQDETPITSAKEESESTAVGQAHSDISKDMSEASEKTMTVEVEGSTVNDQQLEEVVLPSEEEGGGAGTKSVPEDDGHALLAERIEKSLVEPKEDEKGDDVDDPENQNSALADTDASGGLTKESPDTNGPKQKEKEDAQEVELQEGKVHSESDKAITPQAQEELQKQERESAKSELTES
notes: AKAP12, endogenous in HEK293 cells, detected with anti-AKAP12 antibody; also called native AKAP12; endogenously expressed AKAP12; source: endogenous, HEK293 whole-cell lysate

Biological target: the molecule itself
Test: SDS-PAGE (SDS-resistant oligomers); whole-cell lysates of HEK293 cells on SDS-PAGE without urea; immunoblot with anti-HA or anti-AKAP12; cells also treated with isoproterenol (10 uM, 0, 5, 30 min), KT5720, PD98059 or Rolipram (45 min)

Stoichiometry N, 2:
B1, B2, B3
